Test [1] has as its target recombinant wild-type FGF2 (UniProt P09038). The test is described as follows: gel electrophoresis under non-denaturing conditions; recombinant FGF2 under non-denaturing conditions, compared with denaturation at 95 °C.
Test [2] addresses recombinant Ser 255 mutation FGF2 (UniProt P09038). The test is described as above.

Consider two substances from paper PMC12460815.

“And” between values parts separate entries of the source, which are not always exact repeats. Identical values can stand only once.

Usually stoichiometry N stands for the number of molecules, sites or subunits per partner or assembly.

Regarding “recombinant wild-type FGF2 (from UniProt P09038 1-288) (natural protein)”, the stoichiometry N in test [1] is 2 and 4.

In the case of “recombinant Ser 255 mutation FGF2 (from UniProt P09038 1-288) (natural protein)”, the stoichiometry N in test [2] was 2 and 4.
